Data as given in patent US20220017612A1.

Legend:
[1] = molecular target: LAP-TGFβ1 on U937 cells (Homo sapiens) (UniProt P01137); assay: flow cytometry dot plot against GARP, U937 cells, Alexa 647 antibody at 10 ug/ml
[2] = molecular target: chicken LAP-TGFβ1 on HT1080 cells (chicken) (UniProt P09531); assay: flow cytometry, transduced HT1080 cells
[3] = molecular target: human LAP-TGFβ1 overexpressed on cells (human) (UniProt P01137); assay: flow cytometry, transduced HT1080 cells
[4] = molecular target: human-chicken LAP-TGFβ1 chimera #1 on HT1080 cells (human/chicken chimera); assay: flow cytometry, transduced HT1080 cells
Chain of human-chicken LAP-TGFβ1 chimera #1 on HT1080 cells (human/chicken chimera) (chain, as listed by the source mutant limits assumed): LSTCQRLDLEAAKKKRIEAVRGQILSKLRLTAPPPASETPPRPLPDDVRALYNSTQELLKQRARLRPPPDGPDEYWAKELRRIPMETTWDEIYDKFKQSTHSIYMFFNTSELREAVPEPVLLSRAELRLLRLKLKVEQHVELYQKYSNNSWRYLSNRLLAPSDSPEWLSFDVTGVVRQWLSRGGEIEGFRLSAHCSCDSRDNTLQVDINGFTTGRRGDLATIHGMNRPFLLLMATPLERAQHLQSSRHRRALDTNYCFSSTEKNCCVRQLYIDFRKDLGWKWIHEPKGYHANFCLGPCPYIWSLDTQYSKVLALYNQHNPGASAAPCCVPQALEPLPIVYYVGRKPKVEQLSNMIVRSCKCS

[5] = molecular target: human-chicken LAP-TGFβ1 chimera #1.2 on HT1080 cells (human/chicken chimera) (UniProt P01137); assay: flow cytometry, transduced HT1080 cells
Chain of human-chicken LAP-TGFβ1 chimera #1.2 on HT1080 cells (human/chicken chimera) (P01137 other isoform, or with tags, fused parts or gaps mutant): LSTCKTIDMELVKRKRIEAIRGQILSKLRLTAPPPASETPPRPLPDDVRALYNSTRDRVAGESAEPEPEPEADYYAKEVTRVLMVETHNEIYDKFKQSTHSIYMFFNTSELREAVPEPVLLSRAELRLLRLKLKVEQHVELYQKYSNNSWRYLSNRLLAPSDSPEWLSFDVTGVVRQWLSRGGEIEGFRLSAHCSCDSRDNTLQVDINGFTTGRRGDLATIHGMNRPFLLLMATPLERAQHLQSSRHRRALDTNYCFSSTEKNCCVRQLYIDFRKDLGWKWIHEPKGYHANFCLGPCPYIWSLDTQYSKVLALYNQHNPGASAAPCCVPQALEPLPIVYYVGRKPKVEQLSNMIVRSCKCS

[6] = molecular target: human-chicken LAP-TGFβ1 chimera #1.3 on HT1080 cells (human/chicken chimera) (UniProt P01137); assay: flow cytometry, transduced HT1080 cells
Chain of human-chicken LAP-TGFβ1 chimera #1.3 on HT1080 cells (human/chicken chimera) (P01137 other isoform, or with tags, fused parts or gaps mutant): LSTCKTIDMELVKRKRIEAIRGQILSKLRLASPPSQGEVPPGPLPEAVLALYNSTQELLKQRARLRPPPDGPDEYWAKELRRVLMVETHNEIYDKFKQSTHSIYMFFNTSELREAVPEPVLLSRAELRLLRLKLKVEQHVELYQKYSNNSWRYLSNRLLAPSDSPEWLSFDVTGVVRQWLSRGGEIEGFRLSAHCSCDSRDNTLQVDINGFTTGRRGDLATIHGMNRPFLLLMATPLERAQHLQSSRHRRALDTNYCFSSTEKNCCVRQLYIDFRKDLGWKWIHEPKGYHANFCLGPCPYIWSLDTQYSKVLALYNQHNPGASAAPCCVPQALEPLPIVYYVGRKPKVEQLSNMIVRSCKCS

[7] = molecular target: human-chicken LAP-TGFβ1 chimera #2 on HT1080 cells (human/chicken chimera); assay: flow cytometry, transduced HT1080 cells
Chain of human-chicken LAP-TGFβ1 chimera #2 on HT1080 cells (human/chicken chimera) (chain, as listed by the source mutant limits assumed): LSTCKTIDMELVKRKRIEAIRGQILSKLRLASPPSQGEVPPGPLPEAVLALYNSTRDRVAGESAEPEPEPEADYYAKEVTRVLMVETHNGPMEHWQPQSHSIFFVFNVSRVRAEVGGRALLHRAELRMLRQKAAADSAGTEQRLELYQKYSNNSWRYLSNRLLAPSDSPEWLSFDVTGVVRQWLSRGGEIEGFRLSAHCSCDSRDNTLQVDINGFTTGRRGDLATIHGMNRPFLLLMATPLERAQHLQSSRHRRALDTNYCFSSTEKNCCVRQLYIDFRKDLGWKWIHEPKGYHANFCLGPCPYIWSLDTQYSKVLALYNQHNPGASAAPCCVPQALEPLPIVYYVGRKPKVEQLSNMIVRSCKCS

[8] = molecular target: human-chicken LAP-TGFβ1 chimera #2.1 on HT1080 cells (human/chicken chimera) (UniProt P01137); assay: flow cytometry, transduced HT1080 cells
Chain of human-chicken LAP-TGFβ1 chimera #2.1 on HT1080 cells (human/chicken chimera) (P01137 other isoform, or with tags, fused parts or gaps mutant): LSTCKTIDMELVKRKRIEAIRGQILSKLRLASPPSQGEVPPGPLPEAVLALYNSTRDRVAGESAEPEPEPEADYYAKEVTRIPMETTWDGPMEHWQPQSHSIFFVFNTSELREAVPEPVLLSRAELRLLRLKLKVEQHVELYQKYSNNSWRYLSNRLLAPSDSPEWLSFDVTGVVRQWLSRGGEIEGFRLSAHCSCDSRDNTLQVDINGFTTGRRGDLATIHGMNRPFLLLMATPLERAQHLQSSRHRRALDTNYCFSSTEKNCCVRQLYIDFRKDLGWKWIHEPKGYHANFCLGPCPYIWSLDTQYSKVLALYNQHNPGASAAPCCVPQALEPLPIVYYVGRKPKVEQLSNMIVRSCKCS

[9] = molecular target: human-chicken LAP-TGFβ1 chimera #2.2 on HT1080 cells (human/chicken chimera) (UniProt P01137); assay: flow cytometry, transduced HT1080 cells
Chain of human-chicken LAP-TGFβ1 chimera #2.2 on HT1080 cells (human/chicken chimera) (P01137 other isoform, or with tags, fused parts or gaps mutant): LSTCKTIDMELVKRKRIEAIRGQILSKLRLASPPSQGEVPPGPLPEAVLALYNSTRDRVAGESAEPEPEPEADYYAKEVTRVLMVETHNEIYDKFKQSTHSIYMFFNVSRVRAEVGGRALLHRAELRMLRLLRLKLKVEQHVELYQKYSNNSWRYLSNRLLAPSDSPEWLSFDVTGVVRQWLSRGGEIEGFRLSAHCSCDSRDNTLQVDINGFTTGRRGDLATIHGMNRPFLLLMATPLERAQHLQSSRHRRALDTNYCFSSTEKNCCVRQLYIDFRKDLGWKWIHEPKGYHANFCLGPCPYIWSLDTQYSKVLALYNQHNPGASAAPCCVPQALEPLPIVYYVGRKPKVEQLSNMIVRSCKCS

[10] = molecular target: human-chicken LAP-TGFβ1 chimera #3 on HT1080 cells (human/chicken chimera) (UniProt P01137); assay: flow cytometry, transduced HT1080 cells
Chain of human-chicken LAP-TGFβ1 chimera #3 on HT1080 cells (human/chicken chimera) (P01137 other isoform, or with tags, fused parts or gaps mutant): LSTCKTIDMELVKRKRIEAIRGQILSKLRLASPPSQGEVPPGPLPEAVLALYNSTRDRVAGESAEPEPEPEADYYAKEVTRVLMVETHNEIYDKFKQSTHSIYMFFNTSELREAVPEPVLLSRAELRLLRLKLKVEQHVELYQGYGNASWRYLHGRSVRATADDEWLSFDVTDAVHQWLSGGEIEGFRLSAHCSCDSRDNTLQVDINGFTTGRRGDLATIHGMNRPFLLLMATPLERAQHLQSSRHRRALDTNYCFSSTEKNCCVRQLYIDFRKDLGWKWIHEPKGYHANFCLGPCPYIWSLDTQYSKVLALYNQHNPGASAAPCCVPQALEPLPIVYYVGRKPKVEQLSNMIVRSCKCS

[11] = molecular target: human-chicken LAP-TGFβ1 chimera #4 on HT1080 cells (human/chicken chimera) (UniProt P01137); assay: flow cytometry, transduced HT1080 cells
Chain of human-chicken LAP-TGFβ1 chimera #4 on HT1080 cells (human/chicken chimera) (P01137 other isoform, or with tags, fused parts or gaps mutant): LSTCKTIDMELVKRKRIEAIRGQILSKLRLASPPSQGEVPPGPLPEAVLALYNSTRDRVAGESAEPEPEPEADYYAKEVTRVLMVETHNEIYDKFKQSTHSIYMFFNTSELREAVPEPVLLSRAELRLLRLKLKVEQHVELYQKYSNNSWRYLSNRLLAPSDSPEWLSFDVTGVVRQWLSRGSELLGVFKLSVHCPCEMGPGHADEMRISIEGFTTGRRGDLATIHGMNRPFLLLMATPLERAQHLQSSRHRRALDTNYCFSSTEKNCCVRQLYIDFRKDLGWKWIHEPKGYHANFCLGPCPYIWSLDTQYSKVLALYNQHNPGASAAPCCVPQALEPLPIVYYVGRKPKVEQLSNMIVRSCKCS

[12] = molecular target: human-chicken LAP-TGFβ1 chimera #5 on HT1080 cells (human/chicken chimera); assay: flow cytometry, transduced HT1080 cells
Chain of human-chicken LAP-TGFβ1 chimera #5 on HT1080 cells (human/chicken chimera) (chain, as listed by the source mutant limits assumed): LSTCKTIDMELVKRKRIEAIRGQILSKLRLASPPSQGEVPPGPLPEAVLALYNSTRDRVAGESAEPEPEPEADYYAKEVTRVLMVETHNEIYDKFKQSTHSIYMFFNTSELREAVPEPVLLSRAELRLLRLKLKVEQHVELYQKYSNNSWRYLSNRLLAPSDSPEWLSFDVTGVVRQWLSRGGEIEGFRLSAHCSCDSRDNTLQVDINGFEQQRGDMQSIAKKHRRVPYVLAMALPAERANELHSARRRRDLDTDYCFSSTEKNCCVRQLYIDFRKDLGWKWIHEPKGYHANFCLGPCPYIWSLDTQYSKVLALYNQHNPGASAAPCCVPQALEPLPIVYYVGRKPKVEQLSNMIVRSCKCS

[13] = molecular target: human-chicken LAP-TGFβ1 chimera #6 on HT1080 cells (human/chicken chimera) (UniProt P01137); assay: flow cytometry, transduced HT1080 cells
Chain of human-chicken LAP-TGFβ1 chimera #6 on HT1080 cells (human/chicken chimera) (P01137 other isoform, or with tags, fused parts or gaps mutant): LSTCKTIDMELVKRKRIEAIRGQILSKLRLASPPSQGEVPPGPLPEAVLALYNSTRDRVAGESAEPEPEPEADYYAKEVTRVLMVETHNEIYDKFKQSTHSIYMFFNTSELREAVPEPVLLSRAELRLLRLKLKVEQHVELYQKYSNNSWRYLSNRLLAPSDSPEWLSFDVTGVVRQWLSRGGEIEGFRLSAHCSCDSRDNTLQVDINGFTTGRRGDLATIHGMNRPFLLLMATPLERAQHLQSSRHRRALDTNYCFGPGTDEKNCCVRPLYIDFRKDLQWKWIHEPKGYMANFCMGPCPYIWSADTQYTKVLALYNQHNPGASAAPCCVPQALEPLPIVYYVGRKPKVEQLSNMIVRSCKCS

[14] = molecular target: human-chicken LAP-TGFβ1 chimera #7 on HT1080 cells (human/chicken chimera) (UniProt P01137); assay: flow cytometry, transduced HT1080 cells

Chain of LAP-TGFβ1 on U937 cells (Homo sapiens) (P01137 30-390 limits assumed): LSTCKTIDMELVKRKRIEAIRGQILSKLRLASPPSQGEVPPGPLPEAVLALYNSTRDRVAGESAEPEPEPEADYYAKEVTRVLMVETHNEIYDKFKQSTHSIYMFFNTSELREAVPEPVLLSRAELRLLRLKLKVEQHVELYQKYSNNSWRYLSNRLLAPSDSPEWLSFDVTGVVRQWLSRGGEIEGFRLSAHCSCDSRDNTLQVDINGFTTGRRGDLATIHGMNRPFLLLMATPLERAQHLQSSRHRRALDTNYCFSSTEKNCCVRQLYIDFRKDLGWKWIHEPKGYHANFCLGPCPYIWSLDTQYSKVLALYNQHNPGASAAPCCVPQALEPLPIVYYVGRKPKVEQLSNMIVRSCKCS
Chain of chicken LAP-TGFβ1 on HT1080 cells (chicken) (P09531 19-391): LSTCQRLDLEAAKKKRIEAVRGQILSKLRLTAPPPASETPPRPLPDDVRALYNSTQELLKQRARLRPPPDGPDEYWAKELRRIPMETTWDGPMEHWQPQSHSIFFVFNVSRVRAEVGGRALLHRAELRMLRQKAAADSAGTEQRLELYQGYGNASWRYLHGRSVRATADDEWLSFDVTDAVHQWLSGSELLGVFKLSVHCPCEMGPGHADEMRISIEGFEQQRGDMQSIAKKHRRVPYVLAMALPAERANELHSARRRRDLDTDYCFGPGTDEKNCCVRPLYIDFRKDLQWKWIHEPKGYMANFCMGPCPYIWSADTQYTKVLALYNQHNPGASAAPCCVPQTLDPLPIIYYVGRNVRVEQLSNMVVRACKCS
Chain of human LAP-TGFβ1 overexpressed on cells (human) (P01137 30-390): as the sequence (P01137 30-390 limits assumed) above

| Substance | % of cells in Q1 (antibody axis positive, GARP negative) [1] | % of cells in Q2 (antibody axis positive, GARP positive) [1] | % GFP+/APC+ cells [2] | % GFP+/APC+ cells [3] | % GFP+/APC+ cells [4] | % GFP+/APC+ cells [5] | % GFP+/APC+ cells [6] | % GFP+/APC+ cells [7] | % GFP+/APC+ cells [8] | % GFP+/APC+ cells [9] | % GFP+/APC+ cells [10] | % GFP+/APC+ cells [11] | % GFP+/APC+ cells [12] | % GFP+/APC+ cells [13] | % GFP+/APC+ cells [14] |
| --- | --- | --- | --- | --- | --- | --- | --- | --- | --- | --- | --- | --- | --- | --- | --- |
| Isotype Control (antibody) | 16.2% | 0.37% | – | – | – | – | – | – | – | – | – | – | – | – | – |
| rabbit monoclonal antibody raised against a peptide from the mature cytokine domain (Abcam ab179695) | – | – | 0.5% | 68.9% | 7.5% | 78.3% | 65.2% | 1.5% | 79.1% | 47.2% | 46.3% | 56.2% | 11.9% | 76.7% | 0.6% |
